# Experimental data reported in the RNAGym collection of RNA variant scans (doi:10.1093/molbev/msab373).
# B1: Azoarcus group I ribozyme (parent)
# chain: GUGCCUUGCGCCGGGAAACCACGCAAGGGAUGGUGUCAAAUUCGGCGAAACCUAAGCGCCCGCCCGGGCGUAUGGCAACGCCGAGCCAAGCUUCGGCGCCUGCGCCGAUGAAGGUGUAGAGACUAGACGGCACCCACCUAAGGCAAACGCUAUGGUGAAGGCAUAGUCCAGGGAGUGGCGAAAGUCACACAAACCGG
# Variants of: B1
# Assay: reverse-splicing fitness (ratio to wild type); higher = more active; in vitro selection; Mg2+ level not given
# Procedure, shortened: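 An in vitro group I ribozyme library with randomized positions was T7-transcribed and gel-purified. In triplicate, 10 pmol RNA in EPPS pH 7.5 was reacted with 50 pmoles of a 30-nt RNA substrate for 1 h at 37 °C across several added MgCl2 levels (1–48 mM), then stopped with EDTA. Products were reverse transcribed from a substrate-complementary primer, PCR-amplified and sequenced (HiSeq 4000). Fitness is a variant's read proportion after selection over that before, normalised to wild type.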
row,Variant,reverse-splicing fitness
1,GUGCCUUGCGCCGGGAAACCACGCAAGGGAUGGUGUCAAAUUCGGCGAAACCUAAGCGCCCGCCCGGGCGUAUGGCAACGCUGAGCCAAGCUUCGGCGCCUGCGCCGAUGGAGGUGUAGCGACUAGACGGCACCCACCUAAGGCUAACGGUAUGGUGAAGGCAUAGUCCAGGGAGGGGCGAAAGUCACACAAACCGG [C82U A111G A120C A145U C150G U176G],0.00286
2,GUGCCUUGCGCCGGGAAACCACGCAAGGGAUGGUGUCAAAUUCGGCGAAACCUAAGCGCCCGCCCGGGCGUAUGGCAACGCUGAGCCAAGCUUCGGCGCCUGCGCCGAUGGAGGUGUAGCGACUAGACGGCACCCACCUAAGGCUAACGGUAUGGUGAAGGCAUAGUCCAGGGAGCGGCGAAAGUCACACAAACCGG [C82U A111G A120C A145U C150G U176C],0.00882
3,GUGCCUUGCGCCGGGAAACCACGCAAGGGAUGGUGUCAAAUUCGGCGAAACCUAAGCGCCCGCCCGGGCGUAUGGCAACGCUGAGCCAAGCUUCGGCGCCUGCGCCGAUGGAGGUGUAGCGACUAGACGGCACCCACCUAAGGCUAACGGUAUGGUGAAGGCAUAGUCCAGGGAGAGGCGAAAGUCACACAAACCGG [C82U A111G A120C A145U C150G U176A],0.00455
4,GUGCCUUGCGCCGGGAAACCACGCAAGGGAUGGUGUCAAAUUCGGCGAAACCUAAGCGCCCGCCCGGGCGUAUGGCAACGCUGAGCCAAGCUUCGGCGCCUGCGCCGAUGGAGGUGUAGCGACUAGACGGCACCCACCUAAGGCUAACGUUAUGGUGAAGGCAUAGUCUAGGGAGAGGCGAAAGUCACACAAACCGG [C82U A111G A120C A145U C150U C169U U176A],0.0157
5,GUGCCUUGCGCCGGGAAACCACGCAAGGGAUGGUGUCAAAUUCGGCGAAACCUAAGCGCCCGCCCGGGCGUAUGGCAACGCUGAGCCAAGCUUCGGCGCCUGCGCCGAUGGAGGUGUAGCGACUAGACGGCACCCACCUAAGGCUAACGUUAUGGUGAAGGCAUAGUCUAGGGAGCGGCGAAAGUCACACAAACCGG [C82U A111G A120C A145U C150U C169U U176C],0.0124
6,GUGCCUUGCGCCGGGAAACCACGCAAGGGAUGGUGUCAAAUUCGGCGAAACCUAAGCGCCCGCCCGGGCGUAUGGCAACGCUGAGCCAAGCUUCGGCGCCUGCGCCGAUGGAGGUGUAGCGACUAGACGGCACCCACCUAAGGCUAACGUUAUGGUGAAGGCAUAGUCUAGGGAGGGGCGAAAGUCACACAAACCGG [C82U A111G A120C A145U C150U C169U U176G],0.00402
7,GUGCCUUGCGCCGGGAAACCACGCAAGGGAUGGUGUCAAAUUCGGCGAAACCUAAGCGCCCGCCCGGGCGUAUGGCAACGCUGAGCCAAGCUUCGGCGCCUGCGCCGAUGGAGGUGUAGCGACUAGACGGCACCCACCUAAGGCUAACGUUAUGGUGAAGGCAUAGUCUAGGGAGUGGCGAAAGUCACACAAACCGG [C82U A111G A120C A145U C150U C169U],0.00989
8,GUGCCUUGCGCCGGGAAACCACGCAAGGGAUGGUGUCAAAUUCGGCGAAACCUAAGCGCCCGCCCGGGCGUAUGGCAACGCUGAGCCAAGCUUCGGCGCCUGCGCCGAUGGAGGUGUAGCGACUAGACGGCACCCACCUAAGGCUAACGUUAUGGUGAAGGCAUAGUCAAGGGAGUGGCGAAAGUCACACAAACCGG [C82U A111G A120C A145U C150U C169A],0.00793
9,GUGCCUUGCGCCGGGAAACCACGCAAGGGAUGGUGUCAAAUUCGGCGAAACCUAAGCGCCCGCCCGGGCGUAUGGCAACGCUGAGCCAAGCUUCGGCGCCUGCGCCGAUGGAGGUGUAGCGACUAGACGGCACCCACCUAAGGCUAACGUUAUGGUGAAGGCAUAGUCGAGGGAGUGGCGAAAGUCACACAAACCGG [C82U A111G A120C A145U C150U C169G],0.008
10,GUGCCUUGCGCCGGGAAACCACGCAAGGGAUGGUGUCAAAUUCGGCGAAACCUAAGCGCCCGCCCGGGCGUAUGGCAACGCUGAGCCAAGCUUCGGCGCCUGCGCCGAUGGAGGUGUAGCGACUAGACGGCACCCACCUAAGGCUAACGCUAUGGUGAAGGCAUAGUCGAGGGAGAGGCGAAAGUCACACAAACCGG [C82U A111G A120C A145U C169G U176A],0.00935
11,GUGCCUUGCGCCGGGAAACCACGCAAGGGAUGGUGUCAAAUUCGGCGAAACCUAAGCGCCCGCCCGGGCGUAUGGCAACGCUGAGCCAAGCUUCGGCGCCUGCGCCGAUGGAGGUGUAGCGACUAGACGGCACCCACCUAAGGCUAACGGUAUGGUGAAGGCAUAGUCUAGGGAGUGGCGAAAGUCACACAAACCGG [C82U A111G A120C A145U C150G C169U],0.00776
12,GUGCCUUGCGCCGGGAAACCACGCAAGGGAUGGUGUCAAAUUCGGCGAAACCUAAGCGCCCGCCCGGGCGUAUGGCAACGCUGAGCCAAGCUUCGGCGCCUGCGCCGAUGGAGGUGUAGCGACUAGACGGCACCCACCUAAGGCUAACGGUAUGGUGAAGGCAUAGUCGAGGGAGGGGCGAAAGUCACACAAACCGG [C82U A111G A120C A145U C150G C169G U176G],0.00386
13,GUGCCUUGCGCCGGGAAACCACGCAAGGGAUGGUGUCAAAUUCGGCGAAACCUAAGCGCCCGCCCGGGCGUAUGGCAACGCUGAGCCAAGCUUCGGCGCCUGCGCCGAUGGAGGUGUAGCGACUAGACGGCACCCACCUAAGGCUAACGCUAUGGUGAAGGCAUAGUCAAGGGAGAGGCGAAAGUCACACAAACCGG [C82U A111G A120C A145U C169A U176A],0.00844
14,GUGCCUUGCGCCGGGAAACCACGCAAGGGAUGGUGUCAAAUUCGGCGAAACCUAAGCGCCCGCCCGGGCGUAUGGCAACGCUGAGCCAAGCUUCGGCGCCUGCGCCGAUGGAGGUGUAGCGACUAGACGGCACCCACCUAAGGCUAACGCUAUGGUGAAGGCAUAGUCAAGGGAGCGGCGAAAGUCACACAAACCGG [C82U A111G A120C A145U C169A U176C],0.00627
15,GUGCCUUGCGCCGGGAAACCACGCAAGGGAUGGUGUCAAAUUCGGCGAAACCUAAGCGCCCGCCCGGGCGUAUGGCAACGCUGAGCCAAGCUUCGGCGCCUGCGCCGAUGGAGGUGUAGCGACUAGACGGCACCCACCUAAGGCUAACGCUAUGGUGAAGGCAUAGUCAAGGGAGGGGCGAAAGUCACACAAACCGG [C82U A111G A120C A145U C169A U176G],0.00329
